Experiments:
[1] = biological target: Sulfolobus islandicus type I-D Cas10d large subunit (Se-Met substituted, C-terminal His6) (Sulfolobus islandicus); experiment: crystal structure; Se-Met Cas10d and AcrID1 mixed 1:2 (Cas10d:AcrID1), 75 °C for 1 min, complex isolated on Superdex 200 (30 mM Hepes-NaOH pH 7.5, 150 mM NaCl, 5 mM β-ME); crystals in 0.1 M Hepes pH 7.5, 4% PEG 8000, 5% ethylene glycol, 19 °C; SAD, 3.5 Å
[2] = biological target: Sulfolobus islandicus rod-shaped virus 3 (SIRV3) anti-CRISPR protein AcrID1 (C-terminal His6) (Sulfolobus islandicus rod-shaped virus 3 (SIRV3)); experiment: as above

Sulfolobus islandicus rod-shaped virus 3 (SIRV3) anti-CRISPR protein AcrID1 (C-terminal His6) (natural protein)
stoichiometry N (AcrID1 per Cas10d) [1]: 2
stoichiometry N [2]: 2

Reference: paper PMC7689449
